Data taken from US20230416305A1 (published 2023).
Bridges are numbered along the chain shown (N, C = ends). Where no end group is shown, it is not given here. [ ]: non-standard residue; d: D form. S5 = C=CCCC[C@](C)(N)C(=O)O

T1: ANK domain of Notch1 intracellular segment N1ICD (UniProt P46531 1872-2126)
T1 chain: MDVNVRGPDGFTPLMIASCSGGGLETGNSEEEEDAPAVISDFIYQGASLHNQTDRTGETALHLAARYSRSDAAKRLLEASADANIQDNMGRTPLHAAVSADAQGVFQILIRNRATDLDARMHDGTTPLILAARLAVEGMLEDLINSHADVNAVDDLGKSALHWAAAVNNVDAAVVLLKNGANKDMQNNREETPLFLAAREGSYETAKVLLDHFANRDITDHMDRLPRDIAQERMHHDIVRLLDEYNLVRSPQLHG

T2: ANK1 (α-helical region of the ANK domain of N1ICD) (UniProt P46531 1927-1956)
T2 chain: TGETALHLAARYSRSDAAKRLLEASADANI


Legend:
ANK6 = assay: SPR
ANK2 = assay: SPR
ANK3 = assay: SPR
ANK5 = assay: SPR
ANK4 = assay: SPR
[1] = biological target: T1, ANK domain of Notch1 intracellular …; assay: SPR
[2] = biological target: T1, ANK domain of Notch1 intracellular …; assay: SPR; FIG. 1C
[3] = biological target: T1, ANK domain of Notch1 intracellular …; assay: SPR; FIG. 1D
[4] = biological target: T1, ANK domain of Notch1 intracellular …; assay: SPR
[5] = biological target: T2, ANK1 (α-helical region of the ANK …); assay: SPR

Binder | Kd [1] | other results
YAKRIFYQLLSKEL [AH2] | – | Kd (ANK6): 64.2 µM; Kd (ANK2): 23.3 µM; Kd (ANK3): 85.8 µM; Kd (ANK5): 42.8 µM; Kd (ANK4): 66.1 µM
YAKRIFYQLLSKQL [modified AH2 (mAH2), modified α-helice 2] | – | Kd [2]: 60.4 nM; Kd [3]: 45.2 nM
[S5]AKRIFY[S5]LLSKQL (staple 1-8) [SAH-mAH2-4] | 25.8 nM | –
YAKRIFYQLLSKEL [AH2 (α-helix 2 of N1DARP)] | – | Kd [3]: 60.4 nM; Kd [4]: 60.4 nM; Kd [5]: 4.34 µM
AAKRIFYQLLSKQL [mAH2-1] | 96.1 nM | –
YAKAIFYQLLSKQL [mAH2-4] | 74.5 nM | –
YAARIFYQLLSKQL [mAH2-3] | 51.1 nM | –
[S5]AKR[S5]FYQLLSKQL (staple 1-5) [SAH-mAH2-1] | 134 nM | –
Y[S5]KRI[S5]YQLLSKQL (staple 2-6) [SAH-mAH2-2] | 97.7 nM | –
LLEKKRQY [AH1] | – | Kd [4]: 213 nM
YAKRI[S5]YQLLSK[S5]L (staple 6-13) [SAH-mAH2-5 (stapled α-helix-modified α-helix 2-5)] | 0.898 nM | –

The next lines start with results.

Kd [1] | Binder | other results
87.4 nM | YAKRIFYALLSKQL [mAH2-8] | –
5980 nM | YAKRIFYQLLSKQA [mAH2-14] | –
57.5 nM | YAKRAFYQLLSKQL [mAH2-5] | –
63.6 nM | YAKRIAYQLLSKQL [mAH2-6] | –
83.9 nM | YAKRIFYQLLAKQL [mAH2-11] | –
99 nM | YAKRIFYQLLSKAL [mAH2-13] | –
55.5 nM | YAKRIFYQLASKQL [mAH2-10] | –
286 nM | YAKRIFYQALSKQL [mAH2-9] | –
78.2 nM | YAKRIFYQLLSAQL [mAH2-12] | –
